For data set [1], the target named is 3xHA-Sec61β soluble domain-Omp25 TMD-3F4 (single substrate). To be noted: 3 μM recombinant 3xFLAG-UBQLN2 variants; parent: est. 49; read off a plot.
Data set [2] deals with the molecule itself. As to the kind of experiment: crystal structure; STI1-FrzS-TMD fusion construct; hanging-drop vapor diffusion at 4 °C, 2.5% MPD, 100 mM Tris pH 8.5; 1.98 Å.

The source of these data is PMC13083928, “ALS mutations disrupt self-association between the ubiquilin STI1 hydrophobic groove and internal placeholder sequences” (The EMBO Journal, 2026).

As for “3xFLAG-UBQLN2 (wild type), recombinant (from UniProt Q9UHD9) M446R”, the response (Elution / Input) in data set [1] stood at 57.
The same measure, in the same setting: under “3xFLAG-UBQLN2 (wild type), recombinant (from UniProt Q9UHD9) P440L” stands 54.

B1: variant of the VAMP2 TMD, as it stands in the crystallization construct (peptide)
peptide: MMIALGVACAIALAIAAVYF
notes: variant of the VAMP2 TMD; Written as a molecule of its own because it is joined with the STI1 domain on one chain for the structure; in the experiment it was part of m1; source: part of the STI1-FrzS-TMD fusion; E. coli BL21 DE3 pRIL, purified (Ni-NTA, SEC)
Turning to B1, the binding result in data set [2] was “binds”.
